Bridge positions count the residues as written; N and C are the ends. Square brackets hold non-standard residues; d marks the D form. Ends that are not written are not given here. Aib = CC(C)(N)C(=O)O
What was measured:
Type in all cases: cell-based
human GLP-1 receptor = molecular target: T1, human GLP-1 receptor (Homo sapiens, UniProt P43220); assay: In vitro cAMP activity in human GLP-1 receptor-expressing CHO cells (LANCE cAMP kit); details: long-acting conjugate; relative titer from cAMP EC50 compared to human GLP-1
T1 construct: expressed in transfected cells; host or cells: Chinese hamster ovary (CHO)
T1 sequence (P43220 24-463): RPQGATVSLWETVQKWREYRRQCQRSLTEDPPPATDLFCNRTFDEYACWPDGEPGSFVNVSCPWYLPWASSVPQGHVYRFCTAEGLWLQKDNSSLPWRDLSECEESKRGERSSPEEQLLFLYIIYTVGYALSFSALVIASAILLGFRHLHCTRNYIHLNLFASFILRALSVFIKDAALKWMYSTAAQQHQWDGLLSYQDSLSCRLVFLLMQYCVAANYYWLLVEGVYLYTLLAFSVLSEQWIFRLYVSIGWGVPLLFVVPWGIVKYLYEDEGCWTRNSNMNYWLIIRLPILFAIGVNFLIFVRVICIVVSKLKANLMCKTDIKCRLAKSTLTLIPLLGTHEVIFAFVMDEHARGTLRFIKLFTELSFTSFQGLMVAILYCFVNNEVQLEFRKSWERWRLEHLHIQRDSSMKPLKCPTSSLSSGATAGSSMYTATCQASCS
Protocol: (§1) In order to measure the activity of the triple agonists and long-acting conjugates thereof prepared according to Examples 1 and 2, the in-vitro cell activity was measured using cell lines transformed with GLP-1 receptor, glucagon (GCG) receptor, and GIP receptor, respectively.
(§2) The cell lines were transformed to express human GLP-1 receptor, human GCG receptor and human GIP receptor genes in Chinese hamster ovary (CHO), respectively, and are suitable for measuring the activities of GLP-1, GCG, and GIP. Therefore, the activity for each part was measured using each transformed cell line.
(§3) To measure the GLP-1 activity of the triple agonists and long-acting conjugates prepared according to Examples 1 and 2, human GLP-1 was diluted from 50 nM to 0.000048 nM by 4-fold serial dilution, and the triple agonists and long-acting conjugates thereof prepared according to Examples 1 and 2 were diluted from 400 nM to 0.00038 nM by 4-fold serial dilution. The culture medium was removed from the cultured human GLP-1 receptor-expressing CHO cells, 5 μl of each of the serially diluted materials was added to the cells, and then 5 μl of buffer containing cAMP antibody was added to the cells, followed by 15 minutes of incubation at room temperature. Then, cells were lysed by adding 10 μl of detection mix containing cell lysis buffer, and reacted at room temperature for 90 minutes. The cell lysate after the reaction had been completed, was applied to the LANCE cAMP kit (PerkinElmer, USA) to calculate the EC50 value through the accumulated cAMP, and then compared with each other.

human GCG receptor = molecular target: T2, human GCG receptor (Homo sapiens, UniProt P47871); assay: In vitro cAMP activity in human GCG receptor-expressing CHO cells (LANCE cAMP kit); details: for In vitro activity compared to native-type peptide (%) vs Glucagon: long-acting conjugate, relative titer from cAMP EC50 compared to human GCG; for activity on the glucagon receptor: in words
T2 construct: expressed in transfected cells; host or cells: Chinese hamster ovary (CHO)
T2 sequence (P47871 26-477): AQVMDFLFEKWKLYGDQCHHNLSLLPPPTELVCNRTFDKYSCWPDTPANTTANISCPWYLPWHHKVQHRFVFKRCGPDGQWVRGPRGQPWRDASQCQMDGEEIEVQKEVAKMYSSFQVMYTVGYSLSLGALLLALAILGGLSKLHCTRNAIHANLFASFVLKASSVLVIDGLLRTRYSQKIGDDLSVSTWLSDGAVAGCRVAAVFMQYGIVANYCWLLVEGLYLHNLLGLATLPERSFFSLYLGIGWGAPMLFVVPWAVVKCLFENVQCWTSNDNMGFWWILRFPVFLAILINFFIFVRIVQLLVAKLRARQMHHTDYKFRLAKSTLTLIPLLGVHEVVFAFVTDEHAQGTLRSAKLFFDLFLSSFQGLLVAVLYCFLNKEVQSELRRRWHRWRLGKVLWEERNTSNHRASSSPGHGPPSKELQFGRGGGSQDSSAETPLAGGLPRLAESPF
Protocol: as §1, §2
as §3, with “GCG” for “GLP-1”, “to” for “to 0.000048”

human GIP receptor = molecular target: T3, human GIP receptor (Homo sapiens, UniProt P48546); assay: In vitro cAMP activity in human GIP receptor-expressing CHO cells (LANCE cAMP kit); details: long-acting conjugate; relative titer from cAMP EC50 compared to human GIP
T3 construct: expressed in transfected cells; host or cells: Chinese hamster ovary (CHO)
T3 sequence (P48546 22-466): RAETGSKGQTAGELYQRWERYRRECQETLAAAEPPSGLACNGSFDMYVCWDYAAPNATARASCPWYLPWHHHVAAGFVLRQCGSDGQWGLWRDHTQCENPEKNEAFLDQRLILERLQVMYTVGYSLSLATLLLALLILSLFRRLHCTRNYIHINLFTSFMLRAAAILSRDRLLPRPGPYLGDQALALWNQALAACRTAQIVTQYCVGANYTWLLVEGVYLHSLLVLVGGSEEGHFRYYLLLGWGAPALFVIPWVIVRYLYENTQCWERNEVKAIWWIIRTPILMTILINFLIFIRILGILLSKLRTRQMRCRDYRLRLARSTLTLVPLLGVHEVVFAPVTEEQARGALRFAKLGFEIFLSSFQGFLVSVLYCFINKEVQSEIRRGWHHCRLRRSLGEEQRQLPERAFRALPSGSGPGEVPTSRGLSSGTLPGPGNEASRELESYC
Protocol: as §1, §2
as §3, with “measure the GIP activity of” for “measure the GLP-1 activity of”, “long-acting conjugates thereof prepared according” for “long-acting conjugates prepared according”, “2, human GIP was diluted” for “2, human GLP-1 was diluted”, “nM to […] by” for “nM to 0.000048 nM by”, “cultured human GIP receptor-expressing CHO” for “cultured human GLP-1 receptor-expressing CHO”

Row | Substance | In vitro activity compared to native-type peptide (%) vs GLP-1 (human GLP-1 receptor) [%] | In vitro activity compared to native-type peptide (%) vs Glucagon (human GCG receptor) [%] | In vitro activity compared to native-type peptide (%) vs GIP (human GIP receptor) [%] | activity on the glucagon receptor (human GCG receptor)
1 | 50 (H[Aib]QGTFTSDYSKYLDEKRAKEFVQWLLDHHPSSGQPPPSC; lactam 16-20) [compound 50] | 15.4 | 6.9 | 0.7 | –
2 | 43 (Y[Aib]QGTFTSDYSKYLDEKRAKEFVQWLLDHHCSSGQPPPS; lactam 16-20) [compound 43] | 2.1 | 13.5 | 0.6 | –
3 | YXQGTFTSDYSKCLDEKRAKEFVQWLLDHHPSSGQPPPS (Y[Aib]QGTFTSDYSKCLDEKRAKEFVQWLLDHHPSSGQPPPS; lactam 16-20) [Sequence number 22] | – | – | – | very high activity
4 | 22 (Y[Aib]QGTFTSDYSKCLDEKRAKEFVQWLLDHHPSSGQPPPS; lactam 16-20) [compound 22] | 0.1 | 0.9 | 0.5 | –
5 | YXQGTFTSDYSKYLDEKRAKEFVQWLLDHHPSSGQPPPSC (Y[Aib]QGTFTSDYSKYLDEKRAKEFVQWLLDHHPSSGQPPPSC; lactam 16-20) [Sequence number 42] | – | – | – | very high activity
6 | 96 (Y[Aib]QGTFTSDYSKYLDEKRAKEFVQWLLDHCPSSGQPPPS; lactam 16-20) [compound 96] | 0.3 | 4.0 | 0.3 | –
7 | YXQGTFTSDYSKYLDEKRAKEFVQWLLDHHCSSGQPPPS (Y[Aib]QGTFTSDYSKYLDEKRAKEFVQWLLDHHCSSGQPPPS; lactam 16-20) [Sequence number 43] | – | – | – | very high activity
8 | YXQGTFTSDYSKYLDEKRAKEFVQWLLDHCPSSGQPPPS (Y[Aib]QGTFTSDYSKYLDEKRAKEFVQWLLDHCPSSGQPPPS; lactam 16-20) [Sequence number 96] | – | – | – | very high activity
9 | 21 (Y[Aib]QGTFTSDYSKYLDECRAKEFVQWLLDHHPSSGQPPPS; lactam 16-20) [compound 21] | 0.1 | 1.6 | 0.2 | –

Second part, the substance after the results:

Row | In vitro activity compared to native-type peptide (%) vs GLP-1 (human GLP-1 receptor) [%] | In vitro activity compared to native-type peptide (%) vs Glucagon (human GCG receptor) [%] | In vitro activity compared to native-type peptide (%) vs GIP (human GIP receptor) [%] | activity on the glucagon receptor (human GCG receptor) | Substance
10 | 3.1 | 23.1 | 1.2 | – | 42 (Y[Aib]QGTFTSDYSKYLDEKRAKEFVQWLLDHHPSSGQPPPSC; lactam 16-20) [compound 42]
11 | – | – | – | very high activity | YXQGTFTSDYSKYLDEKRAKEFVQWLLDCHPSSGQPPPS (Y[Aib]QGTFTSDYSKYLDEKRAKEFVQWLLDCHPSSGQPPPS; lactam 16-20) [Sequence number 97]
12 | – | – | – | very high activity | YXQGTFTSDYSKYLDECRAKDFVQWLLDHHPSSGQPPPS (Y[Aib]QGTFTSDYSKYLDECRAKDFVQWLLDHHPSSGQPPPS; lactam 16-20) [Sequence number 66]
13 | 6.7 | 1.7 | 6.6 | – | 77 (Y[Aib]QGTFTSDYSKYLDEKAAKDFVQWLLDHHPSSGQPPPSC; lactam 16-20) [compound 77]
14 | – | – | – | very high activity | YXQGTFTSDYSKYLDECRAKEFVQWLLDHHPSSGQPPPS (Y[Aib]QGTFTSDYSKYLDECRAKEFVQWLLDHHPSSGQPPPS; lactam 16-20) [Sequence number 21]

From patent US20230381333A1, “PHARMACEUTICAL COMPOSITION COMPRISING GLUCAGON/GLP-1/GIP TRIPLE AGONIST OR LONG-ACTING CONJUGATE THEREOF FOR PREVENTING OR TREATING VASCULITIS” (HANMI PHARM CO., LTD., priority 2020, published 2023)
